Results: patent publication US20120009171A1 (SHIRE HUMAN GENETIC THERAPIES, published 2012)

Biological target: the molecule itself
Assay: SEC-HPLC, mobile phase 100 mM sodium citrate pH 5.5 (self-association)
Procedure: Waters HPLC systems were used for size exclusion and reversed phase HPLC analyses. For initial SEC-HPLC analysis, 50 μg of rhASA was injected on to an Agilent Zorbax GF-250 column (4.6 mm×250 mm) and run isocratically at 0.24 mL/min using a mobile phase of 100 mM sodium citrate pH 5.5 (octomer detection) with a detection wavelength of 280 nm. The analyses were repeated using mobile phase conditions of 100 mM sodium citrate, pH 7.0 (dimer detection).
Analysis by size exclusion HPLC detected some degradation for the 2 week thermal stressed sample formulated in 5 mM sodium phosphate with 154 mM NaCl at pH 7.0. The degradation was more evident by SEC-HPLC using a pH 5.5 mobile phase condition which induces association of rhASA to an octamer.

B1: recombinant human arylsulfatase A (rhASA) (enzyme)
chain: RPPNIVLIFADDLGYGDLGCYGHPSSTTPNLDQLAAGGLRFTDFYVPVSLCTPSRAALLTGRLPVRMGMYPGVLVPSSRGGLPLEEVTVAEVLAARGYLTGMAGKWHLGVGPEGAFLPPHQGFHRFLGIPYSHDQGPCQNLTCFPPATPCDGGCDQGLVPIPLLANLSVEAQPPWLPGLEARYMAFAHDLMADAQRQDRPFFLYYASHHTHYPQFSGQSFAERSGRGPFGDSLMELDAAVGTLMTAIGDLGLLEETLVIFTADNGPETMRMSRGGCSGLLRCGKGTTYEGGVREPALAFWPGHIAPGVTHELASSLDLLPTLAALAGAPLPNVTLDGFDLSPLLLGTGKSPRQSLFFYPSYPDEVRGVFAVRTGKYKAHFFTQGSAHSDTTADPACHASSSLTAHEPPLLYDLSKDPGENYNLLGGVAGATPEVLQALKQLQLLKAQLDAAVTFGPSQVARGEDPALQICCHPGCTPRPACCHCPDPHA
notes: By SEC-HPLC it associates to an octamer at pH 5.5 and is seen as a dimer at pH 7.0; also called recombinantly-prepared human arylsulfatase A; human ASA
binding result: binds
